What all share (test): cell-based or functional assay
For assay [1], the target named is mTOR(h) (human, UniProt P42345 1362-2549).
Assay [2] deals with PAK6(h) (human, UniProt Q9NQU5 1-681, limits assumed).
The target in assay [3] is T1, BrSK1(h) (human, UniProt Q8TDC3 1-778, limits assumed).
T1 sequence (looked up): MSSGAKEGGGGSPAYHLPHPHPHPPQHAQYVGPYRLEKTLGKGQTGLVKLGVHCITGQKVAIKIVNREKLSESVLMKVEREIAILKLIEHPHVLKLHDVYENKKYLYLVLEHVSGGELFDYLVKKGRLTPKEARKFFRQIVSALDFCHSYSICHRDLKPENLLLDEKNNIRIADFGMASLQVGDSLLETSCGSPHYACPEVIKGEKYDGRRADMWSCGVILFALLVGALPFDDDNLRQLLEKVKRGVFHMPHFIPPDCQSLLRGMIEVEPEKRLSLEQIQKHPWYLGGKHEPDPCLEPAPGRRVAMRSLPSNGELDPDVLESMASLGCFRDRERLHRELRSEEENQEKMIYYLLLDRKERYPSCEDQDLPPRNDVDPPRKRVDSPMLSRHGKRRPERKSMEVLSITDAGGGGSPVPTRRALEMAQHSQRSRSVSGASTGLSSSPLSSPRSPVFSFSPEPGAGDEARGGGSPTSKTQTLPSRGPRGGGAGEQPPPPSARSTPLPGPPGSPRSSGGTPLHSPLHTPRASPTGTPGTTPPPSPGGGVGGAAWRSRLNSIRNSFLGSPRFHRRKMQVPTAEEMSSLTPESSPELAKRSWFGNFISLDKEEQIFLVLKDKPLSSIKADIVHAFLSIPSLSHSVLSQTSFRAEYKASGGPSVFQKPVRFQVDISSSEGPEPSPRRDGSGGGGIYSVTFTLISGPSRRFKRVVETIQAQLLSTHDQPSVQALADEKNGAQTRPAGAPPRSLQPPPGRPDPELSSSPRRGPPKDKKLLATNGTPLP

Assay [4] has as its target T2, CaMKIV(h) (human, UniProt Q16566 1-473).
T2 sequence (looked up): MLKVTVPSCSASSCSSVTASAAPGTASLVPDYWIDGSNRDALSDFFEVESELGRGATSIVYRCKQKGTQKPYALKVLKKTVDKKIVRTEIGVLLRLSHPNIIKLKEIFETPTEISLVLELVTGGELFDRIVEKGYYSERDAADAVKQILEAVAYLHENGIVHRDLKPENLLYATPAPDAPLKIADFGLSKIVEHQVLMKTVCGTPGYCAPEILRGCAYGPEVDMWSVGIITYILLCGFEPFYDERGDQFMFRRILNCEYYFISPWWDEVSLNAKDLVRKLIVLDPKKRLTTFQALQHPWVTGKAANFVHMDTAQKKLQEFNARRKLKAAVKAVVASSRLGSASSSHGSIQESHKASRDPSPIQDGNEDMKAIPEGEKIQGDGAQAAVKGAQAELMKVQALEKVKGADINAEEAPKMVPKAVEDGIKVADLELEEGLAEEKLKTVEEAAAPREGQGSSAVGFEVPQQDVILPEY

Assay [5] concerns the target EGFR(T790M,L858R)(h) (human, UniProt P00533 696-1210, limits assumed).
In assay [6] the target is SAPK2a(h) (human, UniProt Q16539 1-360).
Assay [7] concerns the target CDK6/cyclinD3(h) (human, UniProt Q00534 1-326; P30281 1-292).
Assay [8] addresses cKit(D816V)(h) (human, UniProt P10721 544-976).
For assay [9], the target named is MLK1(h) (human, UniProt P80192 132-413, limits assumed).
Assay [10] addresses CSK(h) (human, UniProt P41240 1-450).
Assay [11] deals with T3, TSSK2(h) (human, UniProt Q96PF2 1-358).
T3 sequence (looked up): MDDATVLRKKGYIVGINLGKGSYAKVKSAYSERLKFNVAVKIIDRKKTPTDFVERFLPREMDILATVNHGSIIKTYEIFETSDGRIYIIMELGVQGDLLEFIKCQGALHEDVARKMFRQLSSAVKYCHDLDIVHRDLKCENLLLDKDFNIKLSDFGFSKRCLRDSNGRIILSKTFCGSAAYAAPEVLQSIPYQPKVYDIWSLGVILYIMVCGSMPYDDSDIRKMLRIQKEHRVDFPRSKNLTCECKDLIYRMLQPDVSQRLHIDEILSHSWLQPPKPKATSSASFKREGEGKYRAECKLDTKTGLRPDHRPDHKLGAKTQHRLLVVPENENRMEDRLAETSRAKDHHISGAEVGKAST

The target in assay [12] is T4, LKB1(h) (human, UniProt Q15831 1-433).
T4 sequence (looked up): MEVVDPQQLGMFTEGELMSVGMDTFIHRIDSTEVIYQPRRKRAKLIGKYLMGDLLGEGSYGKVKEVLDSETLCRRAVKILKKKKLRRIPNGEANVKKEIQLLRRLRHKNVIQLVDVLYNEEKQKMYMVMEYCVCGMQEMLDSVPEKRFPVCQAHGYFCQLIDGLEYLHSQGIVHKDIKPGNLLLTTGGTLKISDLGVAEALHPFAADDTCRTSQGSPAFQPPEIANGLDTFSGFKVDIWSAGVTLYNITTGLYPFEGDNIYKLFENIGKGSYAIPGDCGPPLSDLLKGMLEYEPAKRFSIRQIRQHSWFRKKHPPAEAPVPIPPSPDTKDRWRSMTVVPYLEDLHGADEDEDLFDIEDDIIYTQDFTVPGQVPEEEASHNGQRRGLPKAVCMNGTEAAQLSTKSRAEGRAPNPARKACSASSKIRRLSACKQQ

Assay [13] deals with CDK3/cyclinE(h) (human, UniProt Q00526 1-305; P24864 1-410).
Assay [14] concerns the target MSK2(h) (human, UniProt O75676 1-772, limits assumed).

For the molecule KAFAKLAARLYRKALARQLGVAA [MMI-0400], the “% activity, 100 µM” value stood at 93% in assay [1]; 100% in assay [2]; 76% in [3]; 18% in assay [4]; 78% in [5]; 85% in assay [6]. The “% activity, 100 µM” value was found to be 85% in assay [7]; 35% in assay [8]; 33% in [9]; 16% in assay [10]; 94% in [11]; 89% in assay [12]. Besides, the entries for the “% activity, 100 µM” value in assay [13] and in assay [14] were 92% and 52%, respectively.

For the molecule FAKLAARLYRKALARQLGVAA [MMI-0300], the “% activity, 100 µM” value came out at 91% in assay [1]; 104% in assay [2]; 67% in [3]; 17% in assay [4]; 85% in [5]; 90% in [6]. Further, the “% activity, 100 µM” value came to 86% in assay [7]; 60% in assay [8]; 40% in assay [9]; 49% in assay [10]; 98% in [11]; 101% in [12]. Further, the “% activity, 100 µM” value was 94% in [13] and 56% in assay [14].

The values above are taken from patent US20140072613A1 (published 2014).
